We go through twelve molecules from US20220362394A1 (SUTRO BIOPHARMA, published 2022).

Changes are numbered by the printed parent chain.

Broadly, the Kd is the free concentration of one partner at which half of the binding sites on the other are occupied at equilibrium, for simple one-to-one binding. In general, EC50 refers to the concentration needed to bring the measured effect to its halfway point. A high value points to a need for much substance. A word on the koff: it is a measure of how fast the partners let go of each other. Higher therefore signals a short-lived complex. By kon is commonly meant the rate constant with which the complex forms. High values mean faster complex formation, low ones slower complex formation.

The labels stand for the following.
T1: human BCMA on cells (human, UniProt Q02223 1-184)
T1 construct: also called hBCMA; BCMA on NCI-H929, ARP-1, OPM-2, U266B1, MM.1S, RPMI-8226 cells
T1 sequence: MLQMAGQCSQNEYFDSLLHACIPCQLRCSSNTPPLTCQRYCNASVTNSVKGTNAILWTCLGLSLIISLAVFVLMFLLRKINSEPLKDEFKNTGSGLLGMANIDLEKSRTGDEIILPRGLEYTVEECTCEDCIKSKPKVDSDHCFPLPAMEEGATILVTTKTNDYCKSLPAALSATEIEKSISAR

T2: human BCMA-Fc (human, UniProt Q02223 1-54)
T2 construct: Bought from R&D Systems; also called huBCMA-Fc; not shown: Fc part not described
T2 sequence: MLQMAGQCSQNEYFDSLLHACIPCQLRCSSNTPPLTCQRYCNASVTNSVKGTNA

B1: 2213-A06 (antibody, V domains shown)
VH: EVQLVESGGGLVQPGGSLRLSCAASGFNISSYAIHWVRQAPGKGLEWVGVISPYGGYTEYADSVKGRFTISADTSKNTAYLQMNSLRAEDTAVYYCARDFYDRYSTYVLDYWGQGTLVTVSS
VL: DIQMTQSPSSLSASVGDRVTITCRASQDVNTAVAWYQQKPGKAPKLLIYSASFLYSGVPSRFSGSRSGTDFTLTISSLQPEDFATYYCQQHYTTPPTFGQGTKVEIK
notes: also called Antibody 23
B2: 2291-E06 (antibody, V domains shown)
VH: B1 VH with S31P, A33T, G49A, V50H, S52F, Y54S, E59D, S105A
VL: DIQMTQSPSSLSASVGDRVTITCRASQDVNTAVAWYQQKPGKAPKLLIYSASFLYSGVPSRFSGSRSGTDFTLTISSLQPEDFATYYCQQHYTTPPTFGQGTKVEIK
notes: also called Antibody 25
B3: 2291-A04 (antibody, V domains shown)
VH: B1 VH with A33G, V50F, G55D, D73G, Y101N, S105F
VL: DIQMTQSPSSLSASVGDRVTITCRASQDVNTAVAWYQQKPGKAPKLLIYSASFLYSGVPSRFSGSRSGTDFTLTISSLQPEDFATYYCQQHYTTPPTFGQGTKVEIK
notes: also called Antibody 28
B4: 2290-A02 (antibody, V domains shown)
VH: EVQLVESGGGLVQPGGSLRLSCAASGFNISTRWIHWVRQAPGKGLEWVGVITPSAGYTHYADSVKGRFTISAGTSKNTAYLQMNSLRAEDTAVYYCARDLGSRYWVGVFDYWGQGTLVTVSS
VL: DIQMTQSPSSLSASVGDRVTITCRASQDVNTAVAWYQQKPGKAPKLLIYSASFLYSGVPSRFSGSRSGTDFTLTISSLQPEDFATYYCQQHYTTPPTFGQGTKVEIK
notes: also called Antibody 22
B5: 2290-C08 (antibody, V domains shown)
VH: EVQLVESGGGLVQPGGSLRLSCAASGFNIQPYWIHWVRQAPGKGLEWVGVITPPSGYTYYADSVKGRFTISADTSKNTAYLQMNSLRAEDTAVYYCARDWGVGYWVGFSDYWGQGTLVTVSS
VL: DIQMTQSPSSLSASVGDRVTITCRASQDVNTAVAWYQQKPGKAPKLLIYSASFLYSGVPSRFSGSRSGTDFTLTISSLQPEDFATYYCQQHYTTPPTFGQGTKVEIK
notes: also called Antibody 21
B6: 2137-A05 (antibody, V domains shown)
VH: EVQLVESGGGLVQPGGSLRLSCAASGFNINNSYIHWVRQAPGKGLEWVGWIYPYSGYTNYADSVKGRFTISADTSKNTAYLQMNSLRAEDTAVYYCARDYGPWYGTGVLDYWGQGTLVTVSS
VL: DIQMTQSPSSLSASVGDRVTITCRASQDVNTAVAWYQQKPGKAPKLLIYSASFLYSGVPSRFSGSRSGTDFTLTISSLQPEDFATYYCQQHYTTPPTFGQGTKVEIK
notes: also called Antibody 14
B7: 2288-A03 (antibody, V domains shown)
VH: B6 VH with Y33W, S55I, Y57F, N59E, G101D, P102L, W103R, G105L
VL: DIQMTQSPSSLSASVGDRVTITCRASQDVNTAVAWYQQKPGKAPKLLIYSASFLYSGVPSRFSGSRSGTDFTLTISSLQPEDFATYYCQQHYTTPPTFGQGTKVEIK
notes: also called Antibody 15
B8: 2265-F03 (antibody, V domains shown)
VH: EVQLVESGGGLVQPGGSLRLSCAASGFNIRGPGIHWVRQAPGKGLEWVGFISPAAGYTDYADSVKGRFTISADTSKNTAYLQMNSLRAEDTAVYYCARDFVQSYWTYVLDYWGQGTLVTVSS
VL: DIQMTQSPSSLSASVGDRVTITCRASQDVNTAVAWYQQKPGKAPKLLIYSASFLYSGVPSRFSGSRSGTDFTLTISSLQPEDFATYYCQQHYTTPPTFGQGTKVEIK
notes: also called Antibody 7
B9: 2265-F06 (antibody, V domains shown)
VH: B8 VH with R30S, G31Y, S52N, A55G, F100Y, V101I, Q102L, S103Q
VL: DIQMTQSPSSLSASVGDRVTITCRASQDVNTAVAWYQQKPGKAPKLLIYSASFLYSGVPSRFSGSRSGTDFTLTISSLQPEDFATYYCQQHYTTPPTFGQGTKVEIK
notes: also called Antibody 2
B10: 2265-F05 (antibody, V domains shown)
VH: B8 VH with R30I, G31A, S52N, A55G, F100Y, Q102N, S103A
VL: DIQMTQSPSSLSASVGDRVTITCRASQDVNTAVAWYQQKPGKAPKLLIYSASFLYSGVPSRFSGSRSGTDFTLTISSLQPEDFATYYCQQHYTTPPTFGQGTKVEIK
notes: also called Antibody 3
B11: 2290-C07 (antibody, V domains shown)
VH: B5 VH with Q30T, P31Y, Y32D, P54F, S55D, R67H, W100M
VL: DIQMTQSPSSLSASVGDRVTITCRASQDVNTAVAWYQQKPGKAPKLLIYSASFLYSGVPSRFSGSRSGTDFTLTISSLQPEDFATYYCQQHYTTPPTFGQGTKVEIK
notes: also called Antibody 19
B12: 2290-G01 (antibody, V domains shown)
VH: B5 VH with Q30S, Y57F, M83V, W100L
VL: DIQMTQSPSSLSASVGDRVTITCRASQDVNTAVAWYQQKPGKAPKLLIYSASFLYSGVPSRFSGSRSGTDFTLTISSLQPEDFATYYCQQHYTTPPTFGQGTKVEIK
notes: also called Antibody 17

For the first assay, the target named is T1, human BCMA on cells. In words: FACS, NCI-H929 cells. As for the experimental part:
(§1) Variants for which sufficient protein was purified in secondary screening were tested in a fluorescence-activated cell sorting (FACS) cell-binding assay. […] 6-12 point dilutions of anti-BCMA variants starting from concentrations of about 100-200 nM antibody were dispensed into each well using a BioMekFX (Beckman Coulter). Cells were then incubated on ice for 1 hr, washed with FACS buffer and incubated for 1 hr on ice with […] FACS buffer containing 2.5 μg/ml Alexa647-conjugated Goat Anti-Human IgG dispensed using BioMekFX (Beckman Coulter). Cells were then washed 2× with FACS buffer and fixed for 10 minutes in […] PBS with 2% paraformaldehyde (PFA) prior to fluorescence detection. Samples were acquired using a Beckton Dickinson LSRII FACS. Geometric Mean Fluorescence Intensity of BCMA antibody binding was analyzed using FlowJo® software (Tree Star, Inc.).
(In general: A flow cytometer gives signals particle by particle.)
The molecule B1 yielded a Bmax of 2510 MFI and a dissociation constant Kd of 5.3 nM.

B2 showed a Bmax of 34400 MFI and a Kd of 5.8 nM.

On to B3, for which the Bmax was found to be 33900 MFI and binding was characterised by a dissociation constant (Kd) of 5 nM.

In turn, B4 displayed a Bmax of 33600 MFI and a Kd of 4.9 nM.

For the molecule B5, the Bmax stood at 37800 MFI and the Kd stood at 11 nM.

As to B6, the Bmax worked out at 2690 MFI and the Kd was determined as 10 nM.

B7 showed a Bmax of 16300 MFI and a Kd of 4.8 nM.

In the case of B8, the Bmax was determined as 11200 MFI and the Kd amounted to 4.3 nM.

B9: the Bmax turned out to be 11400 MFI and the Kd stood at 4.5 nM.

B10 displayed a Bmax of 11900 MFI and a Kd of 6.2 nM.

The target in another assay is T2, human BCMA-Fc. In words: ELISA, coated huBCMA-Fc. Background: In an ELISA, binding on a coated surface is turned into a signal by an enzyme label.
Turning to B1, the Bmax is 3.68e+06 and a half-maximal effect (EC50) was put at 0.2 nM.

B2: the Bmax came to 4.11e+06 and the EC50 stood at 0.21 nM.

Consider B3, for which the Bmax worked out at 4.6e+06 and the EC50 worked out at 0.23 nM.

In turn, B4 gave a Bmax of 4.87e+06 and an EC50 of 0.4 nM.

For the molecule B11, the Bmax was determined as 4.12e+06 and the EC50 came to 0.2 nM.

For B12, the Bmax stood at 4.83e+06 and the EC50 is 0.3 nM.

In the case of B5, the Bmax worked out at 4.33e+06 and the EC50 was 0.3 nM.

In turn, B6 gave a Bmax of 3.3e+06 and an EC50 of 0.52 nM.

Take B7: the Bmax was found to be 4.24e+06 and it took 0.56 nM to reach a half-maximal effect (EC50).

In another assay the target is cynomolgus BCMA on cells (cynomolgus monkey, UniProt Q02223 1-184 (human entry)). Briefly: FACS, 293T-cynoBCMA cells. As for the experimental part: as §1
Chain of cynomolgus BCMA on cells (Q02223 other isoform, or with tags, fused parts or gaps): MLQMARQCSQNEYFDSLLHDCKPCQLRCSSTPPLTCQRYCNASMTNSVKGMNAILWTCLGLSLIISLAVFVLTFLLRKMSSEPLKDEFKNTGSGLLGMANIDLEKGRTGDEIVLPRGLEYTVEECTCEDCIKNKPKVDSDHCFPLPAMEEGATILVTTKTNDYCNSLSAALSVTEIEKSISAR
B1 yielded a Bmax of 3620 MFI and a Kd of 15.1 nM.

In turn, B2 registered a Bmax of 68300 MFI and a Kd of 1.4 nM.

In the case of B3, the Bmax amounted to 63800 MFI and the Kd was 1.2 nM.

The molecule B4 gave a Bmax of 70300 MFI and a Kd of 2.3 nM.

Turning to B11, the Bmax came out at 78100 MFI and binding was characterised by a dissociation constant (Kd) of 6.7 nM.

B12: the Bmax was 77100 MFI and the Kd was 4.7 nM.

In turn, B5 showed a Bmax of 71000 MFI and a Kd of 2.3 nM.

B6 returned a Bmax of 1910 MFI and a Kd of 18.3 nM.

B7 came in with a Bmax of 46800 MFI and a Kd of 1.8 nM.

B8 registered a Bmax of 17400 MFI and a Kd of 2.5 nM.

As to B9, the Bmax was 25800 MFI and the equilibrium dissociation constant (Kd) stood at 3.4 nM.

On to B10, for which the Bmax came out at 26600 MFI and the Kd came to 3.4 nM.

For another assay, the target named is T3, cyno BCMA-Fc (cynomolgus monkey, UniProt Q02223 1-54 (human entry)).
T3 construct: Custom protein production; also called cynomolgus BCMA-Fc; not shown: Fc part not described
Briefly: ELISA, coated cynoBCMA-Fc.
In the case of B1, the Bmax came out at 2.23e+06 and it took 39 nM to reach a half-maximal effect (EC50).

B2 returned a Bmax of 3.36e+06 and an EC50 of 0.13 nM.

B3: the Bmax was 4.23e+06 and the EC50 was determined as 0.2 nM.

Molecule B4 showed a Bmax of 4.47e+06 and an EC50 of 0.4 nM.

Molecule B11 gave a Bmax of 3.81e+06 and an EC50 of 0.2 nM.

B12 yielded a Bmax of 4.6e+06 and an EC50 of 0.3 nM.

For the molecule B5, the Bmax came to 4.14e+06 and the response was half-maximal at 0.2 nM (EC50).

In turn, B6 registered a Bmax of 2.2e+06 and an EC50 of 419 nM.

With B7, the Bmax turned out to be 3.02e+06 and the concentration giving a half-maximal response (EC50) was determined as 0.57 nM.

The target of a further assay is T2, human BCMA-Fc. In words: SPR Biacore, antibody captured, 25 C. As to the method: (§2) Anti-Fab or anti-Fc polyclonal antibodies were immobilized onto a CM5 chip (GE Life Sciences) using amine coupling chemistry (from Amine Coupling Kit, GE Life Sciences). The immobilization steps were carried out at a flow rate of 25 μL/min in 1×HBS-EP+ buffer (GE Life Sciences; 10× Stock diluted before use). The sensor surfaces were activated for 7 min with a mixture of NHS (0.05 M) and EDC (0.2 M). The anti-Fab or anti-Fc antibodies were injected over all 4 flow cells at a concentration of 25 μg/ml in 10 mM sodium acetate, pH 4.5, for 7 min. Ethanolamine (1 M, pH 8.5) was injected for 7 min to block any remaining activated groups.
(§3) Off-rate and kinetic binding experiments were performed at 25° C. using 1×HBS-EP+ buffer. […] After capturing ligand (antibody) on the anti-Fab or anti-Fc surface, the analyte (human BCMA-Fc, cyno BCMA-Fc, or human BCMA from R&D Systems, custom protein production, or Sigma Aldrich, respectively) was bound for 180 seconds, followed by a 600 second dissociation phase at a flow rate of 50 μL/min. Between each ligand capture and analyte binding cycle, regeneration was carried out using 2 injections of 10 mM glycine pH 2.0 for 30 seconds at 30 μL/min, followed by a 30 second buffer wash step.
(§4) The data was fit with the Biacore T200 Evaluation software, using a 1-1 Langmuir binding model. KD (affinity, nM) was determined as a ratio of the kinetic rate constants calculated from the fits of the association and dissociation phases.
For orientation: Surface plasmon resonance follows binding to a sensor surface in real time, without labels.
On to B1, for which the equilibrium dissociation constant (Kd) was 2.08 nM, the koff turned out to be 0.00283 s⁻¹ and the kon turned out to be 1.36e+06 M⁻¹ s⁻¹.

For the molecule B2, the Kd stood at 0.763 nM, the off-rate constant (koff) was 0.000357 s⁻¹ and the kon worked out at 468000 M⁻¹ s⁻¹.

B3 returned a Kd of 0.716 nM, a koff of 0.000349 s⁻¹ and a kon of 487000 M⁻¹ s⁻¹.

B4 returned a dissociation constant (Kd) of 0.567 nM, a koff of 0.000131 s⁻¹ and a kon of 231000 M⁻¹ s⁻¹.

B11: the affinity, expressed as Kd, was 0.612 nM; the koff was found to be 0.000221 s⁻¹; the kon stood at 361000 M⁻¹ s⁻¹.

B12 gave a Kd of 0.445 nM, a koff of 0.000318 s⁻¹ and a kon of 714000 M⁻¹ s⁻¹.

In turn, B5 returned a Kd of 0.378 nM, a koff of 0.000252 s⁻¹ and a kon of 666000 M⁻¹ s⁻¹.

For the molecule B6, the Kd stood at 2.36 nM, the koff is 0.00332 s⁻¹ and the kon worked out at 1.41e+06 M⁻¹ s⁻¹.

B7: the Kd was determined as 0.557 nM, the koff worked out at 0.000516 s⁻¹ and the kon worked out at 927000 M⁻¹ s⁻¹.

B8 returned a Kd of 0.633 nM, a koff of 0.000474 s⁻¹ and a kon of 749000 M⁻¹ s⁻¹.

On to B9, for which the affinity, expressed as Kd, was 0.276 nM; the koff was 0.000193 s⁻¹; the kon turned out to be 699000 M⁻¹ s⁻¹.

In turn, B10 registered a Kd of 0.469 nM, a koff of 0.00024 s⁻¹ and a kon of 512000 M⁻¹ s⁻¹.

In the next assay the target is T3, cyno BCMA-Fc. Briefly: SPR Biacore, antibody captured, 25 C. As for the experimental part:
as §2, §3, §4
B8 returned a Kd of 7.9 nM, a koff of 0.00274 s⁻¹ and a kon of 346000 M⁻¹ s⁻¹.

In turn, B9 yielded a Kd of 3.84 nM, a koff of 0.00133 s⁻¹ and a kon of 347000 M⁻¹ s⁻¹.

In turn, B10 returned a dissociation constant (Kd) of 4.39 nM, a koff of 0.00114 s⁻¹ and a kon of 260000 M⁻¹ s⁻¹.
